# From paper PMC12167799, “The role of human Shu complex in ATP-dependent regulation of RAD51 filaments during homologous recombination–associated DNA damage response”
# T1: SWSAP1 (hSWS1-SWSAP1, WT);hSWS1 (Homo sapiens;Homo sapiens, UniProt Q6NVH7;Q19AV6 22-250;1-140, |)
# T1 sequence 1: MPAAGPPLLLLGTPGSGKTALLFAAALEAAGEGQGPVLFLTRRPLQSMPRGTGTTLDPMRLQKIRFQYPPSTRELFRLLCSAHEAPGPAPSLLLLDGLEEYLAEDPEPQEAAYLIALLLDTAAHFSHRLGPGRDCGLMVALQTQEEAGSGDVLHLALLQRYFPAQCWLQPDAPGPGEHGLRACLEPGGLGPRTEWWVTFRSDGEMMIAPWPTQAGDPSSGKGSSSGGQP
# T1 sequence 2: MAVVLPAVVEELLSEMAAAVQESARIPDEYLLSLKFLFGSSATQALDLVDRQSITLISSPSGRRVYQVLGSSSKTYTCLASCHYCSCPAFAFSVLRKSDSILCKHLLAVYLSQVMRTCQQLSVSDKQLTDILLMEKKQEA
# T2: SWSAP1 K18A (Walker A);hSWS1 (Homo sapiens;Homo sapiens, UniProt Q6NVH7;Q19AV6 22-250;1-140, K39A|)
# T2 sequence 1: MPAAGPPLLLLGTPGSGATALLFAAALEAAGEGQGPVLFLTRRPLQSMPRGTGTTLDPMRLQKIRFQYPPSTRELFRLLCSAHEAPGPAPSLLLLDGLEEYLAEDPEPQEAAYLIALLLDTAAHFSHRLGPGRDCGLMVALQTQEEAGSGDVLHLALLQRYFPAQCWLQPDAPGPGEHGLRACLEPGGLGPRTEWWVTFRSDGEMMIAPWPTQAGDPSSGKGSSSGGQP
# T2 sequence 2: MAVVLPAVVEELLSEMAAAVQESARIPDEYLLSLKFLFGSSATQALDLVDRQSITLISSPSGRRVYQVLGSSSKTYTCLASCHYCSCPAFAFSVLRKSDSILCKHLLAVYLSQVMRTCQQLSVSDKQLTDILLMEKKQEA
# T3: SWSAP1 D96A (Walker B);hSWS1 (Homo sapiens;Homo sapiens, UniProt Q6NVH7;Q19AV6 22-250;1-140, D117A|)
# T3 sequence 1: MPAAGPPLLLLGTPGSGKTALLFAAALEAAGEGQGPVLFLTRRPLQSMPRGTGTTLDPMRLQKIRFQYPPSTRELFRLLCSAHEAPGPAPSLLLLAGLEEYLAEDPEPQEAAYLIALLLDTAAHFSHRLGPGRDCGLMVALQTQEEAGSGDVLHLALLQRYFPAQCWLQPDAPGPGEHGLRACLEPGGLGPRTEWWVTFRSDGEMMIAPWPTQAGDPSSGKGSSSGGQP
# T3 sequence 2: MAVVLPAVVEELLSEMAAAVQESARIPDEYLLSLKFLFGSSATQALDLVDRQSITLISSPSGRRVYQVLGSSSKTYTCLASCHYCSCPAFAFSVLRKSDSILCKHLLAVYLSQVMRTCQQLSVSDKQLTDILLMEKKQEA
# Experiments:
# [1] = biological target: T1, SWSAP1 (hSWS1-SWSAP1, WT);hSWS1; experiment: fluorescence polarization; no nucleotide; FPA: 5 nM 6-FAM DNA, 37 C, 2 mM nucleotide where stated (buffer not given in material); EMSA: 0.05 uM 6-FAM DNA, 5%/15% native PAGE; RAD51 filaments: 2 mM ATP; conditions: protein: recombinant;recombinant, tags: N-terminal 6xHis-TEV, cleaved;none, copies: 1;1
# [2] = biological target: T4, RAD51 (Homo sapiens, UniProt Q06609 1-339); experiment: DNase I protection; 2 mM ATP; FPA: 5 nM 6-FAM DNA, 37 C, 2 mM nucleotide where stated (buffer not given in material); EMSA: 0.05 uM 6-FAM DNA, 5%/15% native PAGE; RAD51 filaments: 2 mM ATP; conditions: protein: recombinant, tags: none, chain copies: 10
# [3] = biological target: T5, RAD51;SWSAP1 (hSWS1-SWSAP1, WT);hSWS1 (Homo sapiens;Homo sapiens;Homo sapiens, UniProt Q06609;Q6NVH7;Q19AV6 1-339;22-250;1-140, ||); experiment: DNase I protection; 2 mM ATP; Shu increases digestion of filament; FPA: 5 nM 6-FAM DNA, 37 C, 2 mM nucleotide where stated (buffer not given in material); EMSA: 0.05 uM 6-FAM DNA, 5%/15% native PAGE; RAD51 filaments: 2 mM ATP; conditions: protein: recombinant;recombinant;recombinant, tags: none;N-terminal 6xHis-TEV, cleaved;none
# [4] = biological target: T2, SWSAP1 K18A (Walker A);hSWS1; experiment: fluorescence polarization; 2 mM ADP; FPA: 5 nM 6-FAM DNA, 37 C, 2 mM nucleotide where stated (buffer not given in material); EMSA: 0.05 uM 6-FAM DNA, 5%/15% native PAGE; RAD51 filaments: 2 mM ATP; conditions: protein: recombinant;recombinant, tags: N-terminal 6xHis-TEV, cleaved;none, copies: 1;1
# [5] = biological target: T2, SWSAP1 K18A (Walker A);hSWS1; experiment: fluorescence polarization; no nucleotide; FPA: 5 nM 6-FAM DNA, 37 C, 2 mM nucleotide where stated (buffer not given in material); EMSA: 0.05 uM 6-FAM DNA, 5%/15% native PAGE; RAD51 filaments: 2 mM ATP; conditions: protein: recombinant;recombinant, tags: N-terminal 6xHis-TEV, cleaved;none, copies: 1;1
# [6] = biological target: T3, SWSAP1 D96A (Walker B);hSWS1; experiment: as above; conditions: protein: recombinant;recombinant, tags: N-terminal 6xHis-TEV, cleaved;none, copies: 1;1
# [7] = biological target: T2, SWSAP1 K18A (Walker A);hSWS1; experiment: fluorescence polarization; 2 mM ATP; FPA: 5 nM 6-FAM DNA, 37 C, 2 mM nucleotide where stated (buffer not given in material); EMSA: 0.05 uM 6-FAM DNA, 5%/15% native PAGE; RAD51 filaments: 2 mM ATP; conditions: protein: recombinant;recombinant, tags: N-terminal 6xHis-TEV, cleaved;none, copies: 1;1
# [8] = biological target: T1, SWSAP1 (hSWS1-SWSAP1, WT);hSWS1; experiment: fluorescence polarization; 2 mM ADP; FPA: 5 nM 6-FAM DNA, 37 C, 2 mM nucleotide where stated (buffer not given in material); EMSA: 0.05 uM 6-FAM DNA, 5%/15% native PAGE; RAD51 filaments: 2 mM ATP; conditions: protein: recombinant;recombinant, tags: N-terminal 6xHis-TEV, cleaved;none, copies: 1;1
# [9] = biological target: T3, SWSAP1 D96A (Walker B);hSWS1; experiment: as above; conditions: protein: recombinant;recombinant, tags: N-terminal 6xHis-TEV, cleaved;none, copies: 1;1
# [10] = biological target: T1, SWSAP1 (hSWS1-SWSAP1, WT);hSWS1; experiment: fluorescence polarization; 2 mM ATP; FPA: 5 nM 6-FAM DNA, 37 C, 2 mM nucleotide where stated (buffer not given in material); EMSA: 0.05 uM 6-FAM DNA, 5%/15% native PAGE; RAD51 filaments: 2 mM ATP; conditions: protein: recombinant;recombinant, tags: N-terminal 6xHis-TEV, cleaved;none, copies: 1;1
# [11] = biological target: T3, SWSAP1 D96A (Walker B);hSWS1; experiment: as above; conditions: protein: recombinant;recombinant, tags: N-terminal 6xHis-TEV, cleaved;none, copies: 1;1
# [12] = biological target: T4, RAD51; experiment: competition (fluorescence intensity); 2 mM ATP; 100x unlabeled dT39 lowers signal ~30%; FPA: 5 nM 6-FAM DNA, 37 C, 2 mM nucleotide where stated (buffer not given in material); EMSA: 0.05 uM 6-FAM DNA, 5%/15% native PAGE; RAD51 filaments: 2 mM ATP; conditions: protein: recombinant, tags: none, chain copies: 10
# [13] = biological target: T5, RAD51;SWSAP1 (hSWS1-SWSAP1, WT);hSWS1; experiment: competition (fluorescence intensity); 2 mM ATP; Shu inhibits exchange at 5' end; FPA: 5 nM 6-FAM DNA, 37 C, 2 mM nucleotide where stated (buffer not given in material); EMSA: 0.05 uM 6-FAM DNA, 5%/15% native PAGE; RAD51 filaments: 2 mM ATP; conditions: protein: recombinant;recombinant;recombinant; tags: none;N-terminal 6xHis-TEV, cleaved;none; label: 5' 6-FAM
# [14] = biological target: RAD51;SWSAP1 D96A (Walker B);hSWS1 (Homo sapiens;Homo sapiens;Homo sapiens, UniProt Q06609;Q6NVH7;Q19AV6 1-339;22-250;1-140, |D117A|); experiment: competition (fluorescence intensity); 2 mM ATP; D96A stabilizes 5' end like WT; FPA: 5 nM 6-FAM DNA, 37 C, 2 mM nucleotide where stated (buffer not given in material); EMSA: 0.05 uM 6-FAM DNA, 5%/15% native PAGE; RAD51 filaments: 2 mM ATP; conditions: protein: recombinant;recombinant;recombinant; tags: none;N-terminal 6xHis-TEV, cleaved;none; label: 5' 6-FAM
# [15] = label: 5' 6-FAM on strand 1, blunt
# [16] = label: 3' 6-FAM on strand 1, 3' overhang 20 nt
# [17] = label: 3' 6-FAM on strand 1, fork 1:2, 19 bp duplex, 20 nt arms
# [18] = label: 3' 6-FAM on strand 1, blunt
# [19] = label: 3' 6-FAM on strand 1, 5' overhang 20 nt
# T4 sequence (Q06609 whole entry): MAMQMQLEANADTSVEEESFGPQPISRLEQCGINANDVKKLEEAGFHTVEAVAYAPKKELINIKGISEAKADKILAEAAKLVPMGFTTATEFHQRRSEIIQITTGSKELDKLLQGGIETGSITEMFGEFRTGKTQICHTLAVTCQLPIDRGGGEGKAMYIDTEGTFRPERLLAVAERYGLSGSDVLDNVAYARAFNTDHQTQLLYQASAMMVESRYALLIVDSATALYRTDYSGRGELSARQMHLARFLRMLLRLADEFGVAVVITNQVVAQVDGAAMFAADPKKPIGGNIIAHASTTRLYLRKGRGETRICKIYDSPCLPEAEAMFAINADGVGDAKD
# T5 sequence (Q06609 whole entry, one chain of several): as the sequence (Q06609 whole entry) above
# Sequence of RAD51;SWSAP1 D96A (Walker B);hSWS1 (Q06609 whole entry, stated change not applied, one chain of several): as the sequence (Q06609 whole entry) above
binder,measurement,setting,value
ds26 (dsDNA) DNA 1: ACTGCCCTTACAGCACAGCGGTTTTT DNA 2: AAAAACCGCTGTGCTGTAAGGGCAGT,Kd,[1]; [15],18.8 ± 0.7 µM
TTTTTTTTTTTTTTTTTTTTTTTTTTTTTT (ssDNA) [*5'-(T)30],binding result,[2]; label: 5' 6-FAM,binds
same,binding result,[3]; label: 5' 6-FAM,binds
ACTGCCCTTACAGCACAGCGGTTTTTTTTTT (ssDNA) [ss31],Kd,[1]; label: 5' 6-FAM,5.7 ± 0.3 µM
3'-overhang (dsDNA) DNA 1: CTTGACAAGCTTGCGCACT DNA 2: AGTGCGCAAGCTTGTCAAGGCACTTTTTTTTTTTTTTTT,Kd,[4]; [16],8.7 ± 0.4 µM
same,Kd,[5]; [16],7.1 ± 0.2 µM
same,Kd,[1]; [16],14.9 ± 0.7 µM
same,Kd,[6]; [16],11 ± 0.8 µM
same,Kd,[7]; [16],7.3 ± 0.6 µM
TTTTTTTTTTTTTTTTTTTTCTTGACAAGCTTGCGCACT (ssDNA) [ss39],Kd,[4]; label: 3' 6-FAM,7.4 ± 0.2 µM
same,Kd,[8]; label: 3' 6-FAM,3.2 ± 0.2 µM
same,Kd,[9]; label: 3' 6-FAM,3.9 ± 0.3 µM
same,Kd,[5]; label: 3' 6-FAM,9.9 ± 0.4 µM
same,Kd,[1]; label: 3' 6-FAM,11.2 ± 0.4 µM
same,Kd,[6]; label: 3' 6-FAM,10.4 ± 0.7 µM
same,Kd,[7]; label: 3' 6-FAM,9.5 ± 0.7 µM
same,Kd,[10]; label: 3' 6-FAM,6.9 ± 0.7 µM
same,Kd,[11]; label: 3' 6-FAM,7.8 ± 0.4 µM
Fork (dsDNA) DNA 1: TTTTTTTTTTTTTTTTTTTTCTTGACAAGCTTGCGCACT DNA 2: AGTGCGCAAGCTTGTCAAGGCACTTTTTTTTTTTTTTTT,Kd,[4]; [17],7 ± 0.8 µM
same,Kd,[8]; [17],25.6 ± 0.7 µM
same,Kd,[9]; [17],33.9 ± 0.9 µM
same,Kd,[5]; [17],4.6 ± 0.4 µM
same,Kd,[1]; [17],7.7 ± 0.5 µM
same,Kd,[6]; [17],7.4 ± 0.4 µM
same,Kd,[7]; [17],8.2 ± 0.4 µM
same,Kd,[10]; [17],18.6 ± 0.7 µM
same,Kd,[11]; [17],22.4 ± 0.4 µM
ds39 (dsDNA) DNA 1: TTTTTTTTTTTTTTTTTTTTCTTGACAAGCTTGCGCACT DNA 2: AGTGCGCAAGCTTGTCAAGAAAAAAAAAAAAAAAAAAAA,Kd,[4]; [18],8.73 ± 0.7 µM
same,Kd,[5]; [18],12.2 ± 1 µM
same,Kd,[1]; [18],19.2 ± 0.9 µM
same,Kd,[6]; [18],13.6 ± 0.6 µM
same,Kd,[7]; [18],10 ± 0.9 µM
5'-overhang (dsDNA) DNA 1: TTTTTTTTTTTTTTTTTTTTCTTGACAAGCTTGCGCACT DNA 2: AGTGCGCAAGCTTGTCAAG,Kd,[4]; [19],3.4 ± 0.3 µM
same,Kd,[8]; [19],8.9 ± 0.4 µM
same,Kd,[9]; [19],5.1 ± 0.2 µM
same,Kd,[5]; [19],3.9 ± 0.3 µM
same,Kd,[1]; [19],3.6 ± 0.2 µM
same,Kd,[6]; [19],3.8 ± 0.2 µM
same,Kd,[7]; [19],3.9 ± 0.2 µM
same,Kd,[10]; [19],3.6 ± 0.1 µM
same,Kd,[11]; [19],4.3 ± 0.4 µM
ACTTACAGCACAGCGGTTTTT (ssDNA) [ss21],Kd,[1]; label: 5' 6-FAM,10.1 ± 0.9 µM
TTTTTTTTTTTTTTTTTTTTTTTTTTTTTTTTTTTTTTT (ssDNA) [*5'-(T)39],binding result,[12]; label: 5' 6-FAM,binds
same,binding result,[13],binds
same,binding result,[14],binds
TTTTTTTTTTTTTTTTTTTTTTTTTTTTTTTTTTTTTTT (ssDNA) [*3'-(T)39],binding result,[12]; label: 3' 6-FAM,binds
ACTGCCCTTACAGCACAGCGGTTTTT (ssDNA) [ss26],Kd,[1]; label: 5' 6-FAM,9.9 ± 0.6 µM
ds21 (dsDNA) DNA 1: ACTTACAGCACAGCGGTTTTT DNA 2: AAAAACCGCTGTGCTGTAAGT,Kd,[1]; [15],43.7 ± 0.4 µM
TTTTTTTTTTTTTTTTTTTTTTTTTTTTTT (ssDNA) [*3'-(T)30],binding result,[2]; label: 3' 6-FAM,binds
same,binding result,[3]; label: 3' 6-FAM,binds
